The source of these data is patent publication US20150320860A1 (published 2015).

Test [1] concerns the target T1, Aβ-derived diffusible ligands (ADDLs), soluble oligomers of synthetic Aβ1-42 (UniProt P05067 672-713).
T1 construct: domain: Aβ1-42; number of copies is not fixed; also called synthetic ADDLs; Aβ oligomers
In words: three-pronged sandwich ELISA (Aβ forms captured by polyclonal M90/1), single antibody concentration; signal on ADDLs over signal on fibrillar Aβ. The protocol: (§1) ELISA. […] Monoclonal antibodies diluted in BSA/TBS were incubated for 90 minutes at room temperature and detected with a VECTASTAIN® ABC kit to mouse IgG. The HRP label was visualized with BIO-RAD peroxidase substrate and read at 405 nm on a Dynex MRX-TC microplate reader.

For test [2], the target named is T1, Aβ-derived diffusible ligands (ADDLs), …. Put plainly: competitive ELISA. The protocol: The plates were incubated for one and half hours at room temperature. Both detection of residual antibody binding and the EC₅₀ calculations were determined as in the one-sided ELISA assay.
Test [3] has the same target. In words: one-sided ELISA, Aβ oligomers coated at 50 pmol/well (FIG. 7A). The protocol: (§2) EC₅₀ represents the half-maximal total Aβ oligomer binding. […] Next day, plates were washed five times with PBS+0.05% TWEEN 20 and blocked overnight with casein blocking buffer (Thermo Scientific, Waltham, Mass.) and 0.05% TWEEN 20. […] After two hours at room temperature incubation, the plates were washed and alkaline phosphatase-conjugated anti-human IgG (ThermoScientific, Waltham, Mass.) was added at 0.08 μg/ml. After incubation for 45 minutes at room temperature, the plates were washed and TROPIX CDP star (Applied Biosystems, Foster City, Calif.) was added. Luminescence was detected after […] on an ENVISION plate reader (PerkinElmer, Waltham, Mass.). Curve fits were completed using GraphPad Prism (GraphPad Software, Inc., San Diego, Calif.) software.

The target is the same in test [4]. Put plainly: BIACORE (SPR); affinity for Aβ1-40 over affinity for ADDLs.
In test [5] the target is T2, Aβ1-40 monomer (UniProt P05067 672-711).
T2 construct: domain: Aβ1-40; also called Aβ40; monomer Aβ (Aβ1-40)
In words: KINEXA, equilibrium constant in solution.

Test [6] concerns the target T1, Aβ-derived diffusible ligands (ADDLs), …. Put plainly: KINEXA, equilibrium constant in solution.
Test [7] addresses T2, Aβ1-40 monomer. Put plainly: ELISA on coated antigen, chemiluminescence; antibody stored at 4°, 1 month. The protocol:
(§3) High protein binding plates (Costar, Corning, Lowell, Mass.), were coated with target ligand in PBS overnight at 4° C. […] One the next day, plates were washed five times with PBS+0.05% TWEEN 20 (Sigma Aldrich, St. Louis, Mo.) and blocked overnight with casein blocking buffer (Thermo Scientific, Waltham, Mass.) and 0.05% TWEEN 20. […] After 2 hours at room temperature incubation, the plates were washed and alkaline phosphatase-conjugated anti-human IgG (ThermoScientific, Waltham, Mass.) was added at 0.08 μg/ml. After 45 minutes at room temperature incubation, the plates were washed and TROPIX CDP-Star chemiluminescent substrate (LIFE TECHNOLOGIES, Carlsbad, Calif.) was added. Luminescence was detected after 30 minutes on an ENVISION microplate reader (PerkinElmer, Waltham, Mass.). Curve fits were completed using […] PRISM software (GraphPad Software, Inc., San Diego, Calif.).

Test [8] has as its target T3, biotinylated ADDLs (bADDLs) (UniProt P05067 672-713, N-terminal biotin).
T3 construct: domain: Aβ1-42; Oligomer mixture; copies not fixed
The description is as above. The method, then: as §3

The target in test [9] is T1, Aβ-derived diffusible ligands (ADDLs), …. Put plainly: one-sided ELISA (FIG. 7A). The method, then: as §2
Test [10] has as its target T2, Aβ1-40 monomer. Put plainly: ELISA on coated antigen, chemiluminescence; antibody stored at 40°, 1 month. The method, then:
as §3

The target in test [11] is T3, biotinylated ADDLs (bADDLs). The test is described as above. The protocol: as §3
The target of test [12] is T2, Aβ1-40 monomer. In words: ELISA on coated antigen, chemiluminescence; antibody stored at 25°, 1 month. The protocol:
as §3

Test [13] has as its target T3, biotinylated ADDLs (bADDLs). The test is described as above. The method, then:
as §3

Test [14] deals with T1, Aβ-derived diffusible ligands (ADDLs), …. Put plainly: KINEXA; constant for Aβ1-40 over constant for ADDLs.
The target of test [15] is T2, Aβ1-40 monomer. In words: BIACORE (SPR).
Test [16] has as its target T1, Aβ-derived diffusible ligands (ADDLs), …. In words: BIACORE (SPR).
Test [17] shares this target. Put plainly: three-pronged sandwich ELISA (Aβ forms captured by polyclonal M90/1), single antibody concentration; signal on ADDLs over signal on monomer Aβ. The protocol:
as §1

Test [18] has the same target. In words: ELISA; IgG2.
The next test addresses T4, Aβ1-42 monomer (UniProt P05067 672-713).
T4 construct: domain: Aβ1-42
In words: ELISA; IgG2.

Test [19] concerns the target T2, Aβ1-40 monomer. In words: one-sided ELISA, Aβ1-40 coated at 100 pmol/well (FIG. 7A). The method, then: as §2
The target in test [20] is T2, Aβ1-40 monomer. Put plainly: ELISA on coated antigen, chemiluminescence; antibody at 0 timepoint. The protocol:
as §3

For test [21], the target named is T3, biotinylated ADDLs (bADDLs). The description is as above. The method, then: as §3
Test [22] has the same target. Put plainly: cell-based assay: antibody pre-incubated with 500 nM bADDLs, block of bADDL binding to primary neurons. The protocol: (§4) As a control, the same concentration of heat-denatured antibody (98° C. for […]) was mixed with bADDLs. The antibody-bADDL mixtures were incubated in siliconized microcentrifuge tubes (Fischer Scientific, Pittsburgh, Pa.) at 37° C. for one hour with constant end-to-end rotation at a low speed. The mixtures were then applied to primary hippocampal and/or cortical cultures and incubated at 37° C. for one hour. The incubation was terminated by removing the culture medium. Cells were subjected to fixation and post-fixation treatments. Cells were then incubated with streptavidin conjugated with alkaline phosphate (AP) at 4° C. overnight, washed five times with PBS and reacted with the TROPIX CDP-Star chemiluminescent substrate (Life Technologies, Carlsbad, Calif.) at room temperature for 30 minutes. The bADDL binding intensity was measured and recorded with an ENVISION microplate reader (PerkinElmer, Waltham, Mass.).

Test [23] shares this target. In words: cell-based assay: antibody pre-incubated with 500 nM bADDLs in the presence of excess Aβ monomer, block of bADDL binding to primary neurons. The method, then:
as §4

B1: anti-ADDL antibody 19.3 (antibody, V domains shown)
VH: EVQLVESGGGLVQPGGSLRLSCAASGFTFSSFGMHWVRQAPGKGLEWVAYISRGSSTIYYADTVKGRFTISRDNAKNSLYLQMNSLRAEDTAVYYCARGITTALDYWGQGTLVTVSS
VL: DVVMTQSPLSLPVTPGEPASISCRSSQSIVHSNGNTYLEWYLQKPGQSPQLLIYKASNRFSGVPDRFSGSGSGTDFTLKISRVEAEDVGVYYCFQGSRLGPSFGQGTKLEIKR
notes: copies: 2 + 2
Regarding B1, in test [1], the “ADDL:Fibrillar binding ratio” value was found to be 2. Moreover, the “fold higher concentration of Aβ1-40 than of Aβ oligomers needed to displace 50% of 19.3” value in test [2] was approximately 600 fold. Further, the 50% effective concentration (EC50) in test [3] is approximately 1.7 nM; with Aβ1-40 monomer [7], 16.3 nM; in test [8], 1.7 nM; with Aβ1-40 monomer [10], 88.8 nM; in test [11] it was 5.9 nM; with Aβ1-40 monomer [12] it was 22.1 nM. Further, the EC50 in [13] was 2.1 nM; in [18], 0.8 nM; with Aβ1-42 monomer it was 18 nM; with Aβ1-40 monomer [19] it was approximately 4.3 nM; with Aβ1-40 monomer [20], 10.1 nM; in test [21] it was 1.1 nM. The “Ratio (Aβ monomer/ADDL)” value in [4] was determined as 31; in test [14], 6.2. The Kd in the test with Aβ1-40 monomer [5] is 16.7 nM; in [6], 2.7 nM; in the test with Aβ1-40 monomer [15], 150 nM; in test [16] it was 4.8 nM. The “fold greater potency for Aβ oligomers than for Aβ40 monomer” value in test [9] is approximately 3.7 fold. Moreover, in test [17], the “ADDL:Monomer binding ratio” value is 2.5. Moreover, the IC50 in test [22] worked out at 15.4 nM; in test [23] it was 15.3 nM.

B2: antibody 19.3 N33T (antibody, IgG2, V domains shown)
VH: EVQLVESGGGLVQPGGSLRLSCAASGFTFSSFGMHWVRQAPGKGLEWVAYISRGSSTIYYADTVKGRFTISRDNAKNSLYLQMNSLRAEDTAVYYCARGITTALDYWGQGTLVTVSS
VL: DVVMTQSPLSLPVTPGEPASISCRSSQSIVHSTGNTYLEWYLQKPGQSPQLLIYKASNRFSGVPDRFSGSGSGTDFTLKISRVEAEDVGVYYCFQGSRLGPSFGQGTKLEIL
notes: also called 19.3T33
Turning to B2, the EC50 with Aβ1-40 monomer [7] turned out to be 307 nM; in test [8], 11.6 nM; in the test with Aβ1-40 monomer [10] it was 96.3 nM; in [11] it was 23.5 nM; in [13], 15.7 nM; in test [18], 3.1 nM. The EC50 with Aβ1-42 monomer was 244 nM; with Aβ1-40 monomer [20], 332 nM; in test [21], 15.5 nM.

B3: antibody 19.3 N33D (antibody, V domains shown)
VH: EVQLVESGGGLVQPGGSLRLSCAASGFTFSSFGMHWVRQAPGKGLEWVAYISRGSSTIYYADTVKGRFTISRDNAKNSLYLQMNSLRAEDTAVYYCARGITTALDYWGQGTLVTVSS
VL: DVVMTQSPLSLPVTPGEPASISCRSSQSIVHSDGNTYLEWYLQKPGQSPQLLIYKASNRFSGVPDRFSGSGSGTDFTLKISRVEAEDVGVYYCFQGSRLGPSFGQGTKLEIL
notes: Made as a control
Turning to B3, the EC50 in test [18] was determined as 0.82 nM; with Aβ1-42 monomer, 28 nM.

B4: humanized anti-ADDL antibody h3B3 (antibody, V domains shown)
VH: EVQLVESGGGLVQPGGSLRLSCAASGFTFSSFGMHWVRQAPGKGLEWVAYISRGSSTIYYADTVKGRFTISRDNAKNSLYLQMNSLRAEDTAVYYCARGITTALDYWGQGTLVTVSS
VL: DVVMTQSPLSLPVTPGEPASISCRSSQSIVHSNGNTYLEWYLQKPGQSPQLLIYKASNRFSGVPDRFSGSGSGTDFTLKISRVEAEDVGVYYCFQGSHVPPTFGQGTKLEIK
notes: Parental humanized antibody; also called humanized 3B3; h3B3 (parental)
For B4, the Kd in the test with Aβ1-40 monomer [5] worked out at 45 nM; with Aβ1-40 monomer [15], 105 nM.

B5: antibody 19.3 N33S (antibody, IgG2, V domains shown)
VH: EVQLVESGGGLVQPGGSLRLSCAASGFTFSSFGMHWVRQAPGKGLEWVAYISRGSSTIYYADTVKGRFTISRDNAKNSLYLQMNSLRAEDTAVYYCARGITTALDYWGQGTLVTVSS
VL: DVVMTQSPLSLPVTPGEPASISCRSSQSIVHSSGNTYLEWYLQKPGQSPQLLIYKASNRFSGVPDRFSGSGSGTDFTLKISRVEAEDVGVYYCFQGSRLGPSFGQGTKLEIL
notes: also called 19.3S33
Turning to B5, the EC50 is 59.1 nM with Aβ1-40 monomer [7]; 8.6 nM in test [8]; 29.9 nM with Aβ1-40 monomer [10]; 10.1 nM in [11]; 24.3 nM with Aβ1-40 monomer [12]; 12.8 nM in [13]. The half-maximal effective concentration (EC50) worked out at 1.7 nM in [18], 150 nM with Aβ1-42 monomer, 55.1 nM in the test with Aβ1-40 monomer [20] and 7.8 nM in [21].
